Molecular target: phospholipase B D2
Assay: IP-MS (UBQLN2 immunoprecipitation, mass spectrometry)
Details: iMNs; read off a plot

other: Student's T-test Difference: 0.47
Substance: Ubiquilin-2, wild type (from UniProt Q9UHD9) P497H; P506T; P509S; P525S

From paper PMC12813162
